Measured values from patent publication US20250297019A1.

Key:
[1] = target: human CCR8 (human) (UniProt P51685); assay: assay not described ('in vitro assays')
[2] = target: cynomolgus monkey CCR8 (cynomolgus monkey); assay: assay not described ('in vitro assays')
[3] = target: human CCR8 (human) (UniProt P51685); assay: cell-based or functional assay

cynomolgus monkey CCR8 (cynomolgus monkey), sequence (O97665 other isoform, or with tags, fused parts or gaps): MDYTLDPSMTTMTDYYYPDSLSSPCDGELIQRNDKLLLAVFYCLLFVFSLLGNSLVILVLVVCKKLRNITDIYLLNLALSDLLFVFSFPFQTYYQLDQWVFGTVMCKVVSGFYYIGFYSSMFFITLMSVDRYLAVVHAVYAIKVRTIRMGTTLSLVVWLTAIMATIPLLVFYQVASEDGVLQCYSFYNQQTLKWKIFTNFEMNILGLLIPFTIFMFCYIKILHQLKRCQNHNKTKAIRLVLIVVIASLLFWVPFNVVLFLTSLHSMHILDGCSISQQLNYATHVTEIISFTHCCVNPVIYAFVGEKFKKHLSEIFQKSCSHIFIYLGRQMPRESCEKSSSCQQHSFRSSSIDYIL

| Substance | Kd [1] [µM] | Kd [2] [µM] | ADCC geometric mean EC50 (calcein release; PBMC effector cells of 8 donors, hCCR8.GNA15 CHO target cells) [3] [ng/mL] | IC50 of CCL1 blocking (Ca2+ influx, CHO/hCCR8.Gna15 cells) [3] [µM] | induction fold at plateau (about 40 nM antibody), mFcgRIV Jurkat reporter with CHO/hCCR8 [3] [fold] | induction fold, mFcgRIV Jurkat NFAT-luciferase reporter with CHO/hCCR8, at about 1 nM antibody [3] |
| --- | --- | --- | --- | --- | --- | --- |
| RO7502175 (antibody) | 32 | 27 | 3 |  |  |  |
| murine anti-human CCR8 mAb L263G8 (Biolegend) (antibody) |  |  |  | 0.0236 | 11 | > 10 .fold |
